The values that follow come from patent publication US20200181259A1.

A word on the IC50: it is the midpoint of a concentration-inhibition curve. A high value points to lower potency.

Experiment [1] deals with human CD47 overexpressed on CHO cells (human) (UniProt Q08722). Put plainly: flow cytometry competition on CHO-hCD47 cells against 200 nM mouse Fc-labelled SIRPα. For orientation: In flow cytometry, cells or beads pass a laser one at a time.
For experiment [2] the target is unchanged. The experiment is described as above. The source holds these as a separate data set.

Where two headings read alike, the source gives them in different places.

B1: AB6.12, control humanized anti-CD47 antibody transiently expressed in 293 HEK cells (antibody, from another filing, V domains shown)
VH: QMQLVQSGAEVKKTGSSVKVSCKASGFNIKDYYLHWVRQAPGQALEWMGWIDPDQGDTEYAQKFQDRVTITRDRSMSTAYMELSSLRSEDTAMYYCNAAYGSSSYPMDYWGQGTTVTV
VL: NIQMTQSPSAMSASVGDRVTITCKASQDIHRYLSWFQQKPGKVPKHLIYRANRLVSGVPSRFSGSGSGTEFTLTISSLQPEDFATYYCLQYDEFPYTFGGGTKVEIK
As for B1, the IC50 was 3.38 nM in experiment [1] and 1.77 nM in experiment [2].
